# Laboratory results reported in publication PMC12519566, “A TOM1 variant impairs interaction with TOLLIP, autophagosome-lysosome fusion and regulation of innate immunity” (Disease Models & Mechanisms, 2025).
# B1: myosin VI (natural protein, human (endogenous in Flp-In T-REx 293), UniProt Q9UM54 1-1294, looked up)
# chain: MEDGKPVWAPHPTDGFQMGNIVDIGPDSLTIEPLNQKGKTFLALINQVFPAEEDSKKDVEDNCSLMYLNEATLLHNIKVRYSKDRIYTYVANILIAVNPYFDIPKIYSSEAIKSYQGKSLGTRPPHVFAIADKAFRDMKVLKMSQSIIVSGESGAGKTENTKFVLRYLTESYGTGQDIDDRIVEANPLLEAFGNAKTVRNNNSSRFGKFVEIHFNEKSSVVGGFVSHYLLEKSRICVQGKEERNYHIFYRLCAGASEDIREKLHLSSPDNFRYLNRGCTRYFANKETDKQILQNRKSPEYLKAGSMKDPLLDDHGDFIRMCTAMKKIGLDDEEKLDLFRVVAGVLHLGNIDFEEAGSTSGGCNLKNKSAQSLEYCAELLGLDQDDLRVSLTTRVMLTTAGGTKGTVIKVPLKVEQANNARDALAKTVYSHLFDHVVNRVNQCFPFETSSYFIGVLDIAGFEYFEHNSFEQFCINYCNEKLQQFFNERILKEEQELYQKEGLGVNEVHYVDNQDCIDLIEAKLVGILDILDEENRLPQPSDQHFTSAVHQKHKDHFRLTIPRKSKLAVHRNIRDDEGFIIRHFAGAVCYETTQFVEKNNDALHMSLESLICESRDKFIRELFESSTNNNKDTKQKAGKLSFISVGNKFKTQLNLLLDKLRSTGASFIRCIKPNLKMTSHHFEGAQILSQLQCSGMVSVLDLMQGGYPSRASFHELYNMYKKYMPDKLARLDPRLFCKALFKALGLNENDYKFGLTKVFFRPGKFAEFDQIMKSDPDHLAELVKRVNHWLTCSRWKKVQWCSLSVIKLKNKIKYRAEACIKMQKTIRMWLCKRRHKPRIDGLVKVGTLKKRLDKFNEVVSVLKDGKPEMNKQIKNLEISIDTLMAKIKSTMMTQEQIQKEYDALVKSSEELLSALQKKKQQEEEAERLRRIQEEMEKERKRREEDEKRRRKEEEERRMKLEMEAKRKQEEEERKKREDDEKRIQAEVEAQLARQKEEESQQQAVLEQERRDRELALRIAQSEAELISDEAQADLALRRSLDSYPVSKNDGTRPKMTPEQMAKEMSEFLSRGPAVLATKAAAGTKKYDLSKWKYAELRDTINTSCDIELLAACREEFHRRLKVYHAWKSKNKKRNTETEQRAPKSVTDYDFAPFLNNSPQQNPAAQIPARQREIEMNRQQRFFRIPFIRPADQYKDPQSKKKGWWYAHFDGPWIARQMELHPDKPPILLVAGKDDMEMCELNLEETGLTRKRGAEILPRQFEEIWERCGGIQYLQNAIESRQARPTYATAMLQSLLK
# notes: myosin VI, endogenous protein found by proximity labeling mass spectrometry; source: endogenous, Flp-In T-REx 293 cells
# Tests used:
# TOLLIP = biological target: T1, TOLLIP (Homo sapiens, UniProt Q9H0E2); assay: lipid-protein overlay; liposome co-sedimentation; assay type: binding; details: without TOM1; overlay: PtdIns3P on PVDF, 60 nM GST-TOLLIP, pH 8.0, 4 C; sedimentation: 2.5 uM TOLLIP, DOPC/DOPE liposomes with 3% PtdIns3P
# T1 construct: human TOLLIP cDNA in pGEX6P1, expressed in E. coli Rosetta; GST-TOLLIP in the lipid overlay, TOLLIP in liposome co-sedimentation
# GST [1] = assay: cross-linking; BS3 (0.25-5 mM), 30 min at room temperature; TOLLIP and TOM1 preincubated for 30 min before BS3; SDS-PAGE
# GST [2] = assay: cross-linking; glutaraldehyde dilution series (0.01-1%), 5 min at 37°C; SDS-PAGE
# [3] = biological target: T2, TOM1 G307D, MYC-BirA fusion (BioID bait) (UniProt O60784 1-492, G307D); assay: proximity labelling; BioID with mass spectrometry; Flp-In T-REx 293 cells induced with 2 µg/ml doxycycline and 50 µM biotin for 24 h; Strep-Tactin sepharose; three biological replicates; details: partners not purified
# T2 construct: also called TOM1 G307D variant; source: inducible Flp-In T-REx 293 cell line, induced with doxycycline and biotin, in cells
molecule,measurement,setting,value
CCCCCCCCCCCCCCCC(=O)OC[C@H](COP(=O)(O)O[C@@H]1[C@H](O)[C@H](OP(=O)(O)O)[C@@H](O)[C@H](O)[C@H]1O)OC(=O)CCCCCCCCCCCCCCC [dipalmitoyl PtdIns3P],lipid-protein overlay; liposome co-sedimentation,TOLLIP,"As expected, TOM1 WT significantly reduced TOLLIP binding to PtdIns3P (Fig. 2B)."
GST (natural protein),stoichiometry N,GST [1],2
same,stoichiometry N,GST [2],2
B1,interaction relative to that of TOM1 WT with myosin VI,[3],69%
